Experimental data taken from patent publication US20140010815A1 (JOSAI UNIVERSITY, published 2014).
No end group written: not given here.

Biological target: T1, conjugate of a peptide consisting of an amino acid sequence represented by SEQ ID NO: 1 and KLH (also: conjugated to KLH with glutaraldehyde, attachment site not given here)
T1 construct: Synthetic peptide (Fmoc solid phase) chemically conjugated to KLH; used as the immunogen and as the coating antigen in the antibody titer ELISA; also called antigenic substance; not shown: KLH carrier protein (SIGMA), coupled by glutaraldehyde
T1 peptide: SSVLYGGPPSAA
Test: antibody titer ELISA, plate coated with the peptide-KLH conjugate, hybridoma culture supernatant, fluorescence read-out
Protocol: A buffer solution containing the above-mentioned antigenic substance (5 mg) (Baicarbonate buffer: 100 mM NaHCO₃—NaOH, pH 9.2 to 9.5, the concentration of the peptide: 1 μg/mL) was added to a 96 well flat bottom plate in an amount of 50 μL per well, and allowed to stand for coating at room temperature for 2 hours. The plate was washed 3 times with wash buffer (PBST), and then blocking buffer (3% skim milk 1% BSA, PBS) was added in an amount of 200 to 250 μL/well to react at 4° C. for one full day, and then washed 3 times. Then the culture supernatant of hybridoma was added in an amount of 100 μL/well, which was allowed to react at 37° C. for 4 hours or at 4° C. for one full day. After the plate was washed 3 times, biotin-labeled anti-mouse IgG (SIGMA) diluted 10000 times with dilution buffer (10 mM Tris-HCl (pH 8.0), 0.9% (W/V) NaCl, 0.05% (W/V) Tween 20) was added in an amount of 50 μL/well, which was allowed to react at room temperature for 2 hours. […] Then washing was performed 6 times, and fluorescent substrate buffer (Attophos substrate buffer, Roche Diagnostics K.K.) was added in an amount of 50 μL/well, and the plate was shaded to allow fluorescence to develop. Fluorescence intensity was measured in CytoFluorII (PerSeptive Biosystems).

B1: monoclonal antibody (SSVmAb) of Example 1, produced by Mouse-Mouse hybridoma SSV-C 93-3 (antibody, IgG1, V domains shown)
VH: EIQLQQSGAELVKPGASVKISCKASGYSFTGYNMNWVKQSHGKSLEWIGNINPYYGSTSYNQKFKGKATLTVDKSSSTAYMQLNSLTSEDSAVYYCARSPYYSNYWRYFDYWGQGTTLTVSS
VL: QIVLSQSPAILSASPGEKVTMTCRASSSVSYMHWYQQKPGSSPKPWIYATSNLASGVPARFSGSGSGTSYSLTISRVEAEDAATYYCQQWSSNPWTFGGGTKLEIK
notes: Mouse monoclonal antibody purified from hybridoma culture supernatant; light chain amplified with a mouse kappa constant region primer
- binding result: binds
